Numbering of substitutions follows the chain as printed. One block for each binder: values may come before it.
Tests used:
[1] = biological target: T1, CC89 variant of CD117 (T144A) on M07e cells (human, UniProt P10721 26-976); assay: binding to edited M07e cells (Table 8B)
T1 construct: also called CC89-M07e

[2] = biological target: T2, Wild type CD117 purified protein (human, UniProt P10721 26-520, limits assumed); assay: KD, method not stated (Table 8B)
T2 construct: Protein used in BLI/kinetics and cryo-EM; also called wt CD117; Wt CD117
T2 sequence (P10721 26-520 limits assumed): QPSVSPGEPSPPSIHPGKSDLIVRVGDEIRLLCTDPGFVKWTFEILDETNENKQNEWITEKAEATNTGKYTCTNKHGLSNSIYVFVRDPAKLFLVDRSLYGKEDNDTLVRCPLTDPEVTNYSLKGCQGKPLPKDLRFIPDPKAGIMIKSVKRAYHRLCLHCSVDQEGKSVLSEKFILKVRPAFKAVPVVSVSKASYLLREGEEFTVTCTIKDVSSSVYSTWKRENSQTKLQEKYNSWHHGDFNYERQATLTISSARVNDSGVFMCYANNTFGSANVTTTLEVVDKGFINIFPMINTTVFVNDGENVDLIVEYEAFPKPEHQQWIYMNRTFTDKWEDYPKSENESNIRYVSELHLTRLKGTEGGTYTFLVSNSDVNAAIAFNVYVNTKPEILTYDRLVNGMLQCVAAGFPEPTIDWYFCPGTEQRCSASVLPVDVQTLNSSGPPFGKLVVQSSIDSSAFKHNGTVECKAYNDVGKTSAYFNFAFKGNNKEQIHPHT

Cyno CD117 = biological target: T3, Cyno CD117 (cynomolgus, UniProt F6V858 26-520 (rhesus entry)); assay: KD, method not stated (Table 8B)
T3 construct: also called cynomolgus CD117
T3 sequence (chain, as listed by the source): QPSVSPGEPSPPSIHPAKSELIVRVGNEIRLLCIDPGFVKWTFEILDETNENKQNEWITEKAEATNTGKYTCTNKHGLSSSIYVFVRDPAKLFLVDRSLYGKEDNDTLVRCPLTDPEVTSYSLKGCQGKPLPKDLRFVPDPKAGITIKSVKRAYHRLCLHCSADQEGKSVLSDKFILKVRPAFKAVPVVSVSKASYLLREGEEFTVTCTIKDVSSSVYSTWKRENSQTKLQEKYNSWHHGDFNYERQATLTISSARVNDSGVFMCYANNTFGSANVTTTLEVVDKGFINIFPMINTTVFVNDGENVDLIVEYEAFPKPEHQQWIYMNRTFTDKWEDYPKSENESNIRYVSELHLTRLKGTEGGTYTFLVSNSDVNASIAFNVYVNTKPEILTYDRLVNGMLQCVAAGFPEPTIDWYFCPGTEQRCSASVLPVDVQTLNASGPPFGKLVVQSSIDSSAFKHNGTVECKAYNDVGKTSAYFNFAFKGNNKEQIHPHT

[3] = biological target: T2, Wild type CD117 purified protein; assay: binding kinetics grade, FIGS. 55A-55C
[4] = biological target: T2, Wild type CD117 purified protein; assay: binding kinetics, FIGS. 45A-45K
[5] = biological target: T4, CC128 variant of CD117 (Y259C + N260D) purified protein (human, UniProt P10721 26-520, limits assumed); assay: binding kinetics, FIGS. 45A-45K
T4 construct: also called CC128-edited CD117 as purified protein
T4 sequence (P10721 26-520 Y259C/N260D limits assumed): as the sequence (P10721 26-520 limits assumed) above, with Y234C, N235D counted along it

[6] = biological target: CC200 variant of CD117 (S261G) purified protein (human, UniProt P10721 26-520, limits assumed); assay: binding kinetics, FIGS. 45A-45K
Chain of CC200 variant of CD117 (S261G) purified protein (P10721 26-520 S261G limits assumed): as the sequence (P10721 26-520 limits assumed) above, with S236G counted along it

[7] = biological target: T5, Wild type CD117 expressed on cells (M07e cells, unedited human CD34+ HSPCs) (human, UniProt P10721 26-976); assay: cell-based or functional assay
T5 sequence (P10721 26-976 limits assumed): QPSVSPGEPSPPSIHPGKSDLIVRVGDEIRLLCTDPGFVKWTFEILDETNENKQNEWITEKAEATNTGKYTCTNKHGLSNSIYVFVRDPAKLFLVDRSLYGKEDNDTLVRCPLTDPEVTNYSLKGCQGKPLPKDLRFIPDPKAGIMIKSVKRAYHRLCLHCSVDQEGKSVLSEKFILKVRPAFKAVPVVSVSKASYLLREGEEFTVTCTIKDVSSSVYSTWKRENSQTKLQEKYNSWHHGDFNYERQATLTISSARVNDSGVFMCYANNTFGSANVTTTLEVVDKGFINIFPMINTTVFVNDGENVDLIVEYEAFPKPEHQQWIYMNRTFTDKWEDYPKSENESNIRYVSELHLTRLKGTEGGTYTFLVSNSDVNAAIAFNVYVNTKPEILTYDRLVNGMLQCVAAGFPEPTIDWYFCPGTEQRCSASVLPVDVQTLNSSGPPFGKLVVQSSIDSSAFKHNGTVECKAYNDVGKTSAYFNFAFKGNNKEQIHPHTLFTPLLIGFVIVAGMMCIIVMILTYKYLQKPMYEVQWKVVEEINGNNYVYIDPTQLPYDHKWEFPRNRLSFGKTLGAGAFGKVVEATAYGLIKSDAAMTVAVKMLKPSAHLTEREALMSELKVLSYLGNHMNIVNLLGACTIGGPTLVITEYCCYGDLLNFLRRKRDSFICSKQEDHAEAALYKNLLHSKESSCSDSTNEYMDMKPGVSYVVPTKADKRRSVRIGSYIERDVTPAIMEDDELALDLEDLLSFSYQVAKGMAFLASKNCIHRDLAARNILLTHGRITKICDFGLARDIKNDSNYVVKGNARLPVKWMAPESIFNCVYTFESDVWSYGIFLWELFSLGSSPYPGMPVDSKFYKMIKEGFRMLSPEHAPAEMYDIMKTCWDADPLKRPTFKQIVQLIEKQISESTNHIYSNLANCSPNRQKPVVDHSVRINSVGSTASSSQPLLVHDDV

[8] = biological target: T5, Wild type CD117 expressed on cells …; assay: flow cytometry (MFI) on M07e cells (FIG. 59)
[9] = biological target: T2, Wild type CD117 purified protein; assay: binding kinetics, antibody 333.3 to 5.2 nM (FIGS. 58A-58D)
[10] = biological target: wild type CD117 extracellular domain (ECD) protein (human, UniProt P10721 26-524); assay: BLI (Octet), antibody on AHC biosensor, CD117 ECD titrated 1:2 from 345 nM
Chain of wild type CD117 extracellular domain (ECD) protein (P10721 26-524 limits assumed): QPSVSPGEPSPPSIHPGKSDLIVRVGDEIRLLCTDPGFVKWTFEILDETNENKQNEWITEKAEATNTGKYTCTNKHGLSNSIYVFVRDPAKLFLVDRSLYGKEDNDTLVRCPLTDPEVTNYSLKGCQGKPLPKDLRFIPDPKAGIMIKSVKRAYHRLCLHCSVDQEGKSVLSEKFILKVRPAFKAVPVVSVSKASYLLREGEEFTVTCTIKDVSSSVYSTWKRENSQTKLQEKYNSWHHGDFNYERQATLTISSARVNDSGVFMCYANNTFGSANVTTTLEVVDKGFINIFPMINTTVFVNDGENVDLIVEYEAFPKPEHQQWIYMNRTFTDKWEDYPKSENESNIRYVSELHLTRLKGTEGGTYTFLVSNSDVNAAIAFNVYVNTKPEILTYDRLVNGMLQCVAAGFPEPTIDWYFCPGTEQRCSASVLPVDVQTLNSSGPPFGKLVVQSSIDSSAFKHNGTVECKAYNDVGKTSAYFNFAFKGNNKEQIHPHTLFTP
Protocol: The AHC biosensor data was analyzed using Octet Analysis Studio software.

[11] = biological target: T5, Wild type CD117 expressed on cells …; assay: flow cytometry on M07e cells expressing wild type CD117, 1 h (FIG. 87A)
[12] = biological target: T4, CC128 variant of CD117 (Y259C + N260D) …; assay: BLI (Octet), CC128 variant on SA biosensor, antibody titrated 1:2 from 2.5 µM
Protocol: Binding to the CC128 variant of CD117 was determined using streptavidin (SA) biosensors, which were allowed to bind the CC128 variant from a 5 μg/ml solution thereof. The SA biosensors were then titrated with monoclonal antibodies starting at 2.5 μM and using titration increments of 1:2. Data was analyzed using the Octet Analysis Studio Software.

[13] = biological target: T2, Wild type CD117 purified protein; assay: summary Table 75 (repeats Table 71)
[14] = biological target: T2, Wild type CD117 purified protein; assay: monovalent KD, CD117 titrated (FIGS. 73A-73E)
[15] = biological target: T5, Wild type CD117 expressed on cells …; assay: summary Table 75 (repeats Table 73)
[16] = biological target: T5, Wild type CD117 expressed on cells …; assay: flow cytometry on M07e cells, AF647 secondary (FIG. 76A)
[17] = biological target: T5, Wild type CD117 expressed on cells …; assay: cell-based or functional assay; remark: listed apart in the source
[18] = biological target: T6, CC128 variant of CD117 (Y259C + N260D) expressed on cells (M07e, CD34+ HSPCs) (human, UniProt P10721 26-976); assay: binding to edited M07e cells (Table 8B)
T6 construct: Edited cell pools also hold minor alleles (Y259C alone, N260D alone); also called CC128-edited CD117; CC128-M07e
T6 sequence (P10721 26-976 Y259C/N260D limits assumed): as the sequence (P10721 26-976 limits assumed) above, with Y234C, N235D counted along it

T1 sequence (P10721 26-976 T144A limits assumed): as the sequence (P10721 26-976 limits assumed) above, with T119A counted along it

Kd [2]: 6.5 nM
Kd (Cyno CD117): 0.486 nM
B1: ABTx070 (antibody, human IgG1, kappa, V domains shown)
VH: EVQLVESGGGVVRPGGSLRLSCAASGFTFDDYGMSWVRQAPGKGLEWVSDINWNGGSTGYADSVKGRFTISRDNAKNSLYLQMNSLRAEDTALYYCARESWDGSGIYYMDVWGKGTTVTVSS
VL: DIVMTQSPSFLSASVGDRVTITCRASQGISSYLNWYQQKPGKAPKLLIYAASTLQNGVPSRFSGSGSGTDFTLTISSLQPEDFATYYCQQSYSTPITFGQGTRLEIKR
binding result [1]: no binding

Kd [2]: 0.523 nM
Kd (Cyno CD117): 4.28 nM
B2: ABTx071 (antibody, human IgG1, kappa, V domains shown)
VH: B1 VH with D50G, Y80H, D102N, G103Y, S104E, I106Y
VL: B1 VL with D1A, V3Q, N34A, D70E, S91L, Y92N, T94Y, I96Y, R103K
binding result [1]: no binding

binding result [3]: no binding
B3: ABTx252 (antibody, human IgG1, kappa, V domains shown)
VH: QVQLVQSGAAVKKPGESLKISCKGSGYRFTSYWIGWVRQMPGKGLEWMGIIYPGDSDTRYSPSFQGQVTISAGKSISTAYLQWSSLKASDTAMYYCARHGRGYDGYEGAFDIWGQGTMVTVSS
VL: AIQLTQSPSSLSASVGDRVTITCRASQGISSALAWYQQKPGKAPKLLIYDASSLESGVPSRFSGSGSGTDFTLTISSLQPEDFATYYCQQFNSHPLTFGGGTKVEIKR

Kd [10]: 8.48 nM
koff [10]: 0.0166 s⁻¹
kon [10]: 1.95e+06 M⁻¹ s⁻¹
EC50 [11]: 0.398 nM
Kd [12]: 7.49 nM
B6: ABTx308 (antibody, human IgG1, kappa, L234A L235A, V domains shown)
VH: B3 VH with R59K, G105A, E107D
VL: B3 VL with N92S, H94Y
notes: Fc with LALADA

binding result [18]: no binding
Kd [2]: 18.6 nM
Kd (Cyno CD117): 29.5 nM
B9: ABTx061 (antibody, human IgG1, kappa, V domains shown)
VH: EVQLVESGGGLVQPGRSLRLSCAASGFTFDDYAMHWVRQAPGKGLEWVSGISWNSGSIGYADSVKGRFTISRDNAKNSLYLQMNSLRAEDTALYYCAKDTPLGYCSTTSCYGAFDIWGQGTMVTVSS
VL: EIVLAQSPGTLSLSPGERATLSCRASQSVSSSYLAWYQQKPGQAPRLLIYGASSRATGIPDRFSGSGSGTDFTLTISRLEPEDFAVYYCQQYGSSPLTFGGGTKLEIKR

binding result [18]: no binding
Kd [2]: 18 nM
Kd (Cyno CD117): 31.8 nM
B11: ABTx062 (antibody, human IgG1, kappa, V domains shown)
VH: B9 VH with A23S, S57T, T100S, L102P, T107S, T108A, M122T
VL: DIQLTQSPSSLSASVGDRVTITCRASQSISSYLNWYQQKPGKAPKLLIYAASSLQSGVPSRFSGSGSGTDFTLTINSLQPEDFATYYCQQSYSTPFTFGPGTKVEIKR

Continued, binder first:

B4: ABTx052 variant VL_Y94S (antibody, human IgG1, V domains shown)
VH: B3 VH with D104N
VL: AIQLTQSPSSLSASVGDRVTITCRASQGISSALAWYQQKPGKAPKLLIYDASSLESGVPSRFSGSGSGTDFTLTISSLQPEDFATYYCQQFNSSPLTFGGGTKVEIK
Kd [4]: 3.38 nM
koff [4]: 0.00218 s⁻¹
kon [4]: 643000 M⁻¹ s⁻¹
binding result [5]: no binding
binding result [6]: no binding

B5: ABTx253 (antibody, human IgG1, kappa, V domains shown)
VH: B3 VH
VL: B3 VL with N92S, H94Y
IC50 [M], viability of unedited HSCs with 100 ng/mL SCF, 5-7 days [7]: 2.21e-06 M
EC50 [8]: 0.0529 nM
Kd [9]: 13.1 nM
koff [9]: 0.00408 s⁻¹
kon [9]: 312000 M⁻¹ s⁻¹

B7: ABTx167 (antibody, human IgG1, kappa, L234A L235A)
heavy: QVQLVQSGAAVKKPGESLKISCKGSGYRFTSYWIGWVRQMPGKGLEWMGIIYPGDSDTRYSPSFQGQVTISAGKSISTAYLQWSSLKASDTAMYYCARHGRGYNGYEGAFDIWGQGTMVTVSSASTKGPSVFPLAPSSKSTSGGTAALGCLVKDYFPEPVTVSWNSGALTSGVHTFPAVLQSSGLYSLSSVVTVPSSSLGTQTYICNVNHKPSNTKVDKKVEPKSCDKTHTCPPCPAPEAAGGPSVFLFPPKPKDTLYITREPEVTCVVVAVSHEDPEVKFNWYVDGVEVHNAKTKPREEQYNSTYRVVSVLTVLHQDWLNGKEYKCKVSNKALPAPIEKTISKAKGQPREPQVYTLPPSRDELTKNQVSLTCLVKGFYPSDIAVEWESNGQPENNYKTTPPVLDSDGSFFLYSKLTVDKSRWQQGNVFSCSVMHEALHNHYTQKSLSLSPG
light: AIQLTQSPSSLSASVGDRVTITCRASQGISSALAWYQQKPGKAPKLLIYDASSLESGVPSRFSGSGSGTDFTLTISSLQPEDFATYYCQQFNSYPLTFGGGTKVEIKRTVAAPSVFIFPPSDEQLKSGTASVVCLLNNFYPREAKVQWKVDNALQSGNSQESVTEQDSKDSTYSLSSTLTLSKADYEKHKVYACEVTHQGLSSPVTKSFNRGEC
IC50 [M], viability of unedited HSCs with 100 ng/mL SCF, 5-7 days [7]: 2.56e-07 M

B8: ABTx196 (antibody, human IgG1, V domains shown)
VH: B9 VH with S57T, I70N, Q82E, T100S, L102P, T107S, T108A
VL: DVVMTQSPGTLSLSPGERATLSCRASQSVSSSYLAWYQQKPGQAPRLLIYGASSRATGIPDRFSGSGSGTDFTLTISRLEPEDFAVYYCQQSETCLTFGGGTKLEIK
Kd [13]: 8.18 nM
Kd [14]: 8.18 nM
koff [14]: 0.000691 s⁻¹
kon [14]: 84400 M⁻¹ s⁻¹
EC50 [15]: 5.21 nM
EC50 [16]: 5.21 nM
IC50 (M), depletion of human CD34+ HSPCs [17]: 1.3e-05 M

B10: ABTx025 (antibody, human IgG1, kappa, V domains shown)
VH: B9 VH with S57T, I70N, Q82E, T100S, L102P, T107S, T108A
VL: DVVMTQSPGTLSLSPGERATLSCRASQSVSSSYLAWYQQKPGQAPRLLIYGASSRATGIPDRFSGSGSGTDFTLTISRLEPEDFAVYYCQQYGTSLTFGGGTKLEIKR
Kd [13]: 1470 nM
binding result [18]: no binding
Kd [14]: 1470 nM
koff [14]: 0.0509 s⁻¹
kon [14]: 37200 M⁻¹ s⁻¹
Kd [2]: 1.25 nM
Kd (Cyno CD117): 5.31 nM

B12: ABTx198 (antibody, human IgG1, V domains shown)
VH: B9 VH with S57T, I70N, Q82E, T100S, L102P, S106A, T107S, T108A
VL: B8 VL with S92D, E93S, T94L, C95G
Kd [13]: 1.2 nM
Kd [14]: 1.2 nM
koff [14]: 8.74e-05 s⁻¹
kon [14]: 72800 M⁻¹ s⁻¹
EC50 [15]: 5.42 nM
EC50 [16]: 5.42 nM
IC50 (M), depletion of human CD34+ HSPCs [17]: 3.59e-06 M
